# Reference: a protein production outcome set (Wang et al. 2014)
# Experiment: label from the status in PepcDB records
# 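Also: failed if final PepcDB status was selected cloned or expressed and not failed if soluble or beyond.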
sequence,measurement,value
MSLIENLWRGICIISASEDAFSAGETIKEKLKSFEIPVVHYRYKDAEIETIWKCYDAIVFVMALEGATRIVCKYAKSKTEDPAIVCIDDKINYVIPLLGGHWGANDIARELSVILNSTPIITTAAEIKGKLSIERIANILIAKIINPENIVKINAALLRDESICIDGIDVNVNFPENIKVNSEECSYIISLRGDKEYKDKIVVWLKPLKISIGIGSKKDVKMEEIRDGIYKVLERLNLKRERIGIIASIREEVKKIADEFNVRFRLVNEEEINNFMNPCLTPPSKTLIEVGLKGVAEISALIAGGRNSKLILRKIAISRNSTIAVATYEGHHHHHH,protein production,not failed
MRVAILGCGYVGCALARRLLAAGHDVVGVCRSPDSLDAVRETGATAVRADVTDAASLAAVPDADAVVFAASSGGRGADAAREVYVDGLRTVVEQFGGRDDPPEQLVYTSSTGVYGDHDGDWVDEETPLDPTTEKTAALVDAERVALTDASEHGLDPTVVRFAGLYGPDRYRLTRYLDGPVTEGYLNMIHRDDAAGVVAFALTDADADVLLAVDDDPVSKWAFADWLADEAGVPQPAKQTVAERIAAGDLSTPAERRLRTSKRCSNARLTELGYSFAHPTFRSGYQAAIRAHERGEYK,protein production,failed
MAQQFIDIGANLTDDNYFGNYHGKHYHEEDIDVVLQRAERNGLSHIIITSGCLNDFKKAIEIINKYQNLTNIKLVTTIGVHPTRTNELKQEGYLDELLLLCEKNIDKVVAIGEIGLDYERLQFSDKETQLSGYRTLSILHQKYPYLPFFFHCRKSWSDLCQLNKELGYNGCKGVVHCFDGTEEEMNQILNEGWDIGVTGNSLQSIELLNVMKQIPIERLHIETDCPYCGIKKTSAGFKYLKEKDFGVKVEKYQRNKYVQRRNEPSNIIDIAIIMSSIKHISLFEFVNKVYSNSMNMYFPTMN,protein production,not failed
MDSTGASQIVSALDVIYSPKSNNSQRQEAQKFLDEVKLCSESPFWGYEIALQNPTNSILKYFGLGLLDHAVKKNWNDYDEGKRVALRKWVMELNFGVQDYDTRYIKEKLATLWVEVAKRTWGEALKQTNPTEEQLLTSWVDMDNNLFELWNINQSSRELALIIFRILFEDVFLLDDLIVLKRMTVIQPLCVMIVCPIEVFAIKYKFSDKWTKFKANEEGWFSVWIPELNNALQQNNSEYIIRLLETLKTCLNWPLTEVIVRNDVLSSLLTCLSSNIPRAQSMALDSIHILLTRPYSNESHYQMTIDRVFDNMDLLDSVYESLLFDPTDDIDETKYPIIKKFVDMISCLYVCVPKIKETNGQIQKYFKLVLKTTYNPSLIVSGLTLDLWCTCLRNDEYLPKLEKYVIPDLLQFAADALVYYEQIDGHISKKFAEIDFQSKSEFQTFCSTYRKRIRDIIRLISCVELDLTYDWLNNRLNNYFSSPFGQQVLSSTFLDHKLEPYLGALSQYMIVECFINGCIRWKIWYPTGDDYDEKLDSILQKLEILSNQLIALNLREPLLLKKQIQNFALFLTMLKDNVLFTLLEKIITSATMDYPEINLEERGAESDAVRDLRYACGIELNRMALLMPESLKKIYPDLESVIARIMPNLSYHEKISFKSFLLIIVLKSSLDMKEERFAAIVDPELLAWSDKTTVVGLSDLHWFMERLGIVQIAEYFQRRDIDENSDLLSIPIDDEGKELKSELTKRWQSLFPVRATRMFIHYSMQSIKTDEEFKMLQDLWRPRIVPILPYITRLLYQLQSYHDPDNWKGLPTVVQSFVKYSTIERFWEAGASNKSKDEFIDEHMKAMQTLRDFADSVGHIIRYTREYTLLVLSAISSLGSVFYLLDESPDLLLNSIAIFKPGSNEISPGVSTHGWKHIMNIAIRPILKGCPKDCLGKFMPAFLPKLFEILDLLLCQKWSSHMNDMDMNPVPTDDDQMTEEILEENLLRQLTTVVVRIVIDCVGQGNANPNSAKSRLNNHQMEMRKIIFNDLNTLAPFLKLLNHLISFKDTKCSFNSILVMKCCLTSVLNQNNTVDEYFTFEVMKNLLLNVLCNSAFKDSFHEALYAFTVIFLTLCKEYPSARAFLFEISNGYNIDELYRNLRSVDEYKTQRALMIDFIDWVKSTSGKEDGNVDHAGDERKRQEKREAILKKANERLIKKNKENGDMLDDPNIEDGAVGNLFDDN,protein production,failed
MLTTLAIGNYRSINHLVLPLSQLNLVTGANGSGKSNLYKALRLLAETAQGGVVEALAREGGLDSTWWAGPETSARMRRGEVPIQGQHPSEVRRLRLGFATEDLGFAITLGLPIPLPYPSAFMLDPEIKCEAIWGAGAYRPSSLLVERKNALVRAREGNRWAVLDQHADSGESFFNIVGRPRQAPEIGDLRAFINSWRFYDHFRIDRDAPCRQPQLGTRSPVLHHDGRNLASALQTIIEIGDVEDLEEALNDAFPGSRLEINAPPGGLFSVRLHQHGLLRPLEGAELSDGTLRYLLLMAALLTPRPPSLMVLNEPETSLHADLLPALARLIIRASRRSQVWVVSHSAPLINALAACDGCNVLELEKIQGQTQLRGVGLLDEPLWRWAD,protein production,failed
VAEVPEEHKSKDGNTTVGYVIFFYTYSTWKGRTVYMEDLYVMPEFRGNGIGKALLGAVAKEAKDQLCSRLQFSVLDWNKPSLDFYMAKGAEDLTAKEGWHFLRFHGMALDNLAQEAP,protein production,failed
MDATMHLFREKSSIGRLNLARVGLLDCIFGVRLNVEYKKTVEIFDCAGHNHRSGGIRNHRPTNSQGNSHKIKWKNLLLAPYTLVHVLVPPDLNKTCCDCGVYALKYIECHFMGLSLDMLDDVNIKDARLRIAVDLWKAAFDPVFIDRMTKYKPPKINSEIIDINLSVKLLKLNLIDNILEGPLSESITRSKTLLELDNMLEPNCI,protein production,failed
MKHVRSHLPRVLLGLMISVSLVLAGCANNGTGSSMLGGSGTDPDPRLTKSTDSSFFSTSGLTACAAAAGVGILACAVASPSDKVKCMVVAGIAACGVAMGANYYYDYRRSKYSNTAQRLQLMNDDVKADTEKVAQRTYTLQQVINDDKERIAGIQKSIKTKTLDKAKAQQEIASVDSNLAQMNKDLTGMRSKVAEYKKTADLERASDGGTQVTAIDGEISKMNSKVASLQKEVDGLYSQRQAITLG,protein production,failed
MAVEEFNQNLNEIMKFKECNITVDTCVVIDGRITELISDGTIEKCTIIVPEAVISELEAQANKGREIGYFGIEELKKLVKVAKENEMVLEYYGERPSTGEVSLAKAGEIDAMIRKVAKDTNSILFTSDRIQYNLAIAQNINAHFLKVHEEKVDLKLV,protein production,failed
MKVKKLVGTLLATALFFSALTATYYYQKYQALLANNVENTAKEALHQLAYTGREYNNIQDQIETISDLLGHSQSLYDYLREPSKANLTILENMWSSVARNQKLYKQIRFLDTSGTEKVRIKYDFKTSIAGPSLILRDKSAREYFKYAQSLDNEQISAWGIELERDKGELVYPLSPSLRILMPISVNDVRQGYLVLNVDIEYLSSLLNYSPVRDFHIELVKHKGFYIASPDESRLYGDIIPERSQFNFSNMYPDIWPRVVSEQAGYSYSGEHLIAFSSIKFVSNEPLHLIIDLSNEQLSKRATRDINDLIQESLFVLSLVLVFTLPITALALHYRRHSVESKLARAALDGMTAVMISDASLRIIMVNQEFENMMGYSTEQVKGSNAHSLILLPEDLEETLNIWNKLGRENVWEGEVRCRTQLNHVFTAIMRIQANLTKSGKISYYITSLVDISERKALEEQLRNLSEKDGLTGLWNRRKFEEQLTHYANIVERYPDTPTTCLALFDIDHFKRINDERGHDEGDKVICSVAETLLREVRTTDFVSRVGGEEFAVIMPHTTVKEAEVVLNRLRVAVQLRSNMTVTVSAGYSDLTADRTRSYKCADIALYESKSAGRNCVSLCHSIDDIA,protein production,failed
MSSWPQERRDSLLELVRKSREIFSSMKPLLRVGDRPRAVFVGDTHGAFMVTKYVFENFSDYDAIVFLGDYVDREPYGLENLEIILSHFVENKDKVIVLRGNHESPLTNEYYGFRAEVREKLGDENYKEFVDLFSEMPYAAIVNNYLCVHGGIARNLKNVQQIEELKKPDIIPEDEIAFEMLWNDPREELDGFVPNIRGEGTFFYGKDVTLEFLKENSLKGIIRGHEVADGFRSEIDERVITVFSSRYHKMRAGILLQDGEKFNMVYLDEEFLLKGDKS,protein production,failed
MKKQRNLRSMAAQAVEQVVEQGQSLSNILPPLQQKVSDKDKALLQELCFGVLRTLSQLDWLINKLMARPMTGKQRTVHYLIMVGLYQLLYTRIPPHAALAETVEGAIAIKRPQLKGLINGVLRQFQRQQEELLAEFNASDARYLHPSWLLKRLQKAYPEQWQSIVEANNQRPPMWLRINRTHHSRDSWLALLDEAGMKGFPHADYPDAVRLETPAPVHALPGFEDGWVTVQDASAQGCMTWLAPQNGEHILDLCAAPGGKTTHILEVAPEAQVVAVDIDEQRLSRVYDNLKRLGMKATVKQGDGRYPSQWCGEQQFDRILLDAPCSATGVIRRHPDIKWLRRDRDIPELAQLQSEILDAIWPHLKTGGTLVYATCSVLPEENSLQIKAFLQRTADAELCETGTPEQPGKQNLPGAEEGDGFFYAKLIKK,protein production,failed
MYKEGACLYRNPLRSKSDVKDWRMEGGGQISFDDHSLHLSHVQDEAHFVFWCPETFPDGIIVTWDFSPIEQPGLCMLFFAAAGIRGEDLFDPSLRKRTGTYPEYHSGDINALHLSYFRRKYAEERAFRTCNLRKSRGFHLAAMGADPLPSPDDADSPYRMKLIKDKGYVHFSINGLPILEWMDDGSTYGPVLTKGKIGFRQMAPMKAVYRDFAVHQAVRR,protein production,not failed
MSDFGILSLLPPLVAIVLAIWTKRVVFALFSGVWIGGVMAANWNPITGTIKTFEWIIQNVTNSWNATILVFDFLIGAGVGLIYKSGGVHAVANAITKRIKTSRDASLLGWLLGVLIFFDDYTNTIIVGNTMRPITDKMRVSREMLAYIDDSTAAPVAGIAIVSTWIGYELGLIKEAFEKLHITMGEYYAWLHSVPYRFYSIFAIILVFIVAYTHRHYGAMLKAEMRARTTGKVVRDDAKPLMATESDLGLPLTEKGSVHFFIWPVLSLIIVTLLGLYYTGKAACEGPCGAMDILSNADSATSLLWGSFAMVAVALTLVLATKTMTVEETESAIIQGMKQMMMATVILVLAWSIKSATEAVGTAEYVVGLAQRANVPGGIIPLIIFLTAMFISFTTGTSWGTFGILMPIAIPLAYKLAPNDPQVLFASIGAVFAGGIFGDHCSPISDTTIMSSMFSGSDHIDHVTTQIPYAVTAASVGIVLYILFALGIKSPVILLPVGLVLLIAAWYFLSEWYGKKYGVPHGRVPIYPTEISE,protein production,failed
MNKEQLQQMRQAPGFVGALDQSGGSTPKALKAYGIQPDAYQSEEEMFDLIHQMRTRMITSPAFATGKIIGVILFERTMRGKIEGMPTADFLWEKRHIVPFLKVDKGLQDEANGVQLMKPFPELGKLCEEAVGYHVFGTKMRSVIKQANEQGIRDIVEQQFQWGKEILSHGLVPILEPEVDIHCPEKAKAEEILKRELLAQLDKMTEPVMLKITIPTVDNFYKEIIEHPMMLRVVALSGGYSREQANELLSRNHGVIASFSRALVEGLSARQTDAEFNAMLEASIEDVYQASIK,protein production,not failed
MELLKEYNPYLEYRDGELFIEGVSLKELAQTFGTPLYVYSSNFIKERFEAYRKAFPDALICYAVKANFNPHLVKLLGELGAGADIVSGGELYLAKKAGIPPERIVYAGVGKTEKELTDAVDSEILMFNVESRQELDVLNEIAGKLGKKARIAIRVNPDVDPKTHPYIATGMQKSKFGVDIREAQKEYEYASKLENLEIVGIHCHIGSQILDISPYREAVEKVVSLYESLTQKGFDIKYLDIGGGLGIKYKPEDKEPAPQDLADLLKDLLENVKAKIILEPGRSIMGNAGILITQVQFLKDKGSKHFIIVDAGMNDLIRPSIYNAYHHIIPVETKERKKVVADIVGPICETGDFLALDREIEEVQRGEYLAVLSAGAYGFAMSSHYNMRPRAAEVLVENGSVKLIRKRENYDYIVEPSLDI,protein production,not failed
